# Substitutions are numbered along the chain they refer to.
# B1: Fur box DNA (dsDNA)
# DNA 1: GATAATGATAATGATAATGATAATGATAATGA
# DNA 2: TCATTATCATTATCATTATCATTATCATTATC
# B2: native Fur protein (ferric uptake regulator, overexpressed without YdiV) (natural protein, Escherichia coli, UniProt P0A9A9 1-148, looked up)
# chain: MTDNNTALKKAGLKVTLPRLKILEVLQEPDNHHVSAEDLYKRLIDMGEEIGLATVYRVLNQFDDAGIVTRHNFEGGKSVFELTQQHHHDHLICLDCGKVIEFSDDSIEARQREIAAKHGIRLTNHSLYLYGHCAEGDCREDEHAHEGK
# notes: Ferric uptake regulator Fur, Escherichia coli, from plasmid pGL01fur; In the pull-down for mass spectrometry Fur was held on Ni-NTA by its N-terminal His-tag and then released by PreScission cleavage; printed mass 17 089 Da per monomer; also called Zn1Fe1Fur; source: E. coli BL21 harboring pGL01fur; in lysate on Ni-NTA (pull-down) and purified (Ni-NTA, Superdex 200); not shown: His-tag, …
# B3: Fur^YdiV protein (Fur co-expressed with untagged YdiV) (natural protein, Escherichia coli, UniProt P0A9A9 1-148, looked up)
# chain: B2 chain
# notes: Ferric uptake regulator Fur, Escherichia coli, from plasmid pGL01fur, co-expressed with YdiV; also called Zn1Fe1Fur^YdiV; source: E. coli BL21 harboring pGL01fur and pACYCydiV; in lysate on Ni-NTA (pull-down) and purified (Ni-NTA, Superdex 200); not shown: His-tag, N-terminal, kept
# Assays:
# [1] = biological target: Fur in the bacterial two-hybrid plasmid pUT18C-fur (Escherichia coli) (UniProt P0A9A9); assay: two-hybrid; bacterial two-hybrid by reconstitution of adenylate cyclase (T18/T25) in E. coli BTH101; LB-X-Gal plates and β-galactosidase assay (Miller method)
# Zn1Fur = biological target: T1, Zn1Fur (Escherichia coli, UniProt P0A9A9 1-148); assay: FP; EDTA-treated Fur, no Mn2+ added; EMSA: 10 mM Tris-HCl pH 7.5, 1 mM MgCl2, 40 mM KCl, 0.1 mg/ml BSA, 5% glycerol, +/-100 uM MnCl2, 25 nM DNA, 37 C 15 min; FP: 10 mM Tris-HCl pH 7.5, 75 mM NaCl; details: protein: recombinant; tags: N-terminal His (PreScission-cleavable, removed if necessary); chain copies: 2; label: FAM; blunt
# T1 sequence: B2 chain
# Fur P18A = biological target: T2, Fur P18A (Escherichia coli, UniProt P0A9A9 1-148, P18A); assay: EMSA; 100 uM MnCl2; 30 uM protein; EMSA: 10 mM Tris-HCl pH 7.5, 1 mM MgCl2, 40 mM KCl, 0.1 mg/ml BSA, 5% glycerol, +/-100 uM MnCl2, 25 nM DNA, 37 C 15 min; FP: 10 mM Tris-HCl pH 7.5, 75 mM NaCl; details: protein: recombinant; tags: N-terminal His (PreScission-cleavable, removed if necessary); chain copies: 2; label: FAM; blunt
# T2 sequence: B2 chain with P18A
# Fur P29A = biological target: T3, Fur P29A (Escherichia coli, UniProt P0A9A9 1-148, P29A); assay: as above; details: protein: recombinant; tags: N-terminal His (PreScission-cleavable, removed if necessary); chain copies: 2; label: FAM; blunt
# T3 sequence: B2 chain with P29A
# Fur P18ASlyD = biological target: T4, Fur P18ASlyD (Escherichia coli, UniProt P0A9A9 1-148, P18A); assay: as above; details: protein: recombinant; tags: N-terminal His (PreScission-cleavable, removed if necessary); chain copies: 2; label: FAM; blunt
# T4 sequence: B2 chain with P18A
# Fur P18AYdiV = biological target: T5, Fur P18AYdiV (Escherichia coli, UniProt P0A9A9 1-148, P18A); assay: as above; details: protein: recombinant; tags: N-terminal His (PreScission-cleavable, removed if necessary); chain copies: 2; label: FAM; blunt
# T5 sequence: B2 chain with P18A
# [2] = biological target: the molecule itself; assay: SEC; Superdex 200, 10 mM Tris-HCl pH 8.0, 100 mM NaCl, proteins at 100-200 uM, 4°C; 62 kDa and 27 kDa proteins as markers
molecule,measurement,setting,value
YdiV in the bacterial two-hybrid plasmid pKNT25-ydiV (from UniProt P76204 1-237) (natural protein),interaction strength relative to the negative control (β-galactosidase) (times the negative control),[1],3
SlyD in the bacterial two-hybrid plasmid pKNT25-slyD (from UniProt P0A9K9 1-196) (natural protein),interaction strength relative to the negative control (β-galactosidase) (times the negative control),[1],6
B1,Kd,Zn1Fur,7.2 µM
same,binding result,Fur P18A,binds
same,binding result,Fur P29A,binds
same,binding result,Fur P18ASlyD,binds
same,binding result,Fur P18AYdiV,binds
B2,stoichiometry N,[2],2
B3,stoichiometry N,[2],2

# Source: publication PMC7515728, “YdiV regulates Escherichia coli ferric uptake by manipulating the DNA-binding ability of Fur in a SlyD-dependent manner” (Nucleic Acids Research, 2020)
